Source: the supplement of paper PMC9876800

System: peptide library, one residue held at a place counted from the S/T acceptor
Assay: relative phosphorylation of the sub-library (ratio to the mean residue at this position); higher = residue favoured
Conditions: human
In short: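 Purified recombinant kinases (human or orthologue constructs) were incubated in 384-well plates with biotinylated degenerate peptide sub-libraries, each fixing one residue at one position around a central Ser/Thr. Peptides were at 50 μM, with 50 μM ATP spiked with γ-32P-ATP, for 90 min under kinase-specific conditions. Spots on streptavidin membranes were phosphorimaged and quantified by densitometry. Relative sub-library phosphorylation is a ratio to the mean residue at that position.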

PRKCQ, construct: Full length, sequence (Q04759 whole entry, looked up): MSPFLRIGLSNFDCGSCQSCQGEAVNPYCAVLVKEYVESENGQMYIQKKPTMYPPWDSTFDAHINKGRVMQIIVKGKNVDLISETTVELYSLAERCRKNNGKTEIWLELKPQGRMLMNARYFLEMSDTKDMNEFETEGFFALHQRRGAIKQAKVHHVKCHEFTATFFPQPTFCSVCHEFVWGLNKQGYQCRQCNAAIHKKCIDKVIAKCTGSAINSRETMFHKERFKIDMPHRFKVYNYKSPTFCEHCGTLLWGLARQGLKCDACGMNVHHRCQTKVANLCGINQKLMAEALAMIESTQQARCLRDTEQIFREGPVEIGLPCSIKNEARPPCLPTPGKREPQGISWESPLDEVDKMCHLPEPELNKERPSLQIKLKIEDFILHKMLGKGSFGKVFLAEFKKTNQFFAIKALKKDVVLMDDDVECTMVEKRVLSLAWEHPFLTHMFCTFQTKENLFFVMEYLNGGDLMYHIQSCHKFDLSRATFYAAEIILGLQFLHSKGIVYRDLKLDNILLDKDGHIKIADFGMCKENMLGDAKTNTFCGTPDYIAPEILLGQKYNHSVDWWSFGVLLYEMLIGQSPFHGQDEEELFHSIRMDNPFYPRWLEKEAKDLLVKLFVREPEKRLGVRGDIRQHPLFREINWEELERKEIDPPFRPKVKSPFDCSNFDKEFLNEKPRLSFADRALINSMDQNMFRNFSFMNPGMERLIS
PDK4, construct: Full length, sequence (Q16654 whole entry, looked up): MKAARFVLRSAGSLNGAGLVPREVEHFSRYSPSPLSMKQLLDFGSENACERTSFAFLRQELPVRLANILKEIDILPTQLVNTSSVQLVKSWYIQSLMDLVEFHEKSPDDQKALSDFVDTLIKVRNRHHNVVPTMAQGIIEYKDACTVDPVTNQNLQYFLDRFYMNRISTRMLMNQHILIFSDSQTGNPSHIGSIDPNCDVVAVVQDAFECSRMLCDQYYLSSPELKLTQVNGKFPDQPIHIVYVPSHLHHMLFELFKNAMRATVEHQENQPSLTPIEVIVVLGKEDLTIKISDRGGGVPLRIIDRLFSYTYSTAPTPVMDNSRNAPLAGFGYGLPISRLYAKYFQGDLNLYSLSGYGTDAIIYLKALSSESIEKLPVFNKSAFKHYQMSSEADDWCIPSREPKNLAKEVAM
LATS1, construct: aa589-end, sequence (O95835 589-1130, looked up): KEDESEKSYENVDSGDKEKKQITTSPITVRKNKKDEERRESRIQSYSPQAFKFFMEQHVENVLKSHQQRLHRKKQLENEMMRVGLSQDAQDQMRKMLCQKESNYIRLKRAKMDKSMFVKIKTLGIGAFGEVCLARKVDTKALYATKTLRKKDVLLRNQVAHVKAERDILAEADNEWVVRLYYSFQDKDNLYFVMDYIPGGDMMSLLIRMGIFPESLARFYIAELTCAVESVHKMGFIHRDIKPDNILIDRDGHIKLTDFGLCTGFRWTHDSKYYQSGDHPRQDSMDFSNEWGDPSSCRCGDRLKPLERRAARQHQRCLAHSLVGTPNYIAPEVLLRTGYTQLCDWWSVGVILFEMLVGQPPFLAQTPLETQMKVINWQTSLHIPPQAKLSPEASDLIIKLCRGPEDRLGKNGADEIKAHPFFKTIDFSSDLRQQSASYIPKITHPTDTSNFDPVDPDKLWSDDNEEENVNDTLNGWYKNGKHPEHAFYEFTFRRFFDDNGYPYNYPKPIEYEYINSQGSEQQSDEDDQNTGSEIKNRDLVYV

PDK4, construct: Full length (from UniProt Q16654)
relative phosphorylation
Conditions	at +1	at +2	at +3	at +4	at -1	at -2	at -3	at -4	at -5
A fixed	0.674	0.87	1.15	0.987	1.05	0.953	0.939	0.873	1.06
D fixed	0.79	1.21	1.1	1.16	1.09	0.775	0.841	0.861	0.995
E fixed	0.679	1.64	1.06	0.972	0.718	0.715	0.788	0.818	0.876
F fixed	1.34	0.962	1.52	1.07	1.21	1.03	1.65	1.53	1.25
G fixed	0.705	1.22	1.05	1.06	1.29	1.22	1.02	0.992	1.03
H fixed	0.838	0.883	1.09	0.947	1.02	1.23	1.11	0.983	0.996
I fixed	1.2	0.742	1.03	0.802	0.778	0.776	0.912	0.897	0.99
K fixed	0.692	0.745	0.622	0.834	0.847	0.889	0.827	0.86	0.88
L fixed	1.74	0.951	0.993	0.98	0.947	0.97	0.961	0.905	1.05
M fixed	1.48	1.06	1.23	1.02	1.15	1.08	1.07	1.04	1.29
N fixed	0.732	1.05	0.898	1.36	1.1	0.883	0.906	0.964	1.15
P fixed	0.825	0.823	0.93	1.01	0.874	1.09	0.973	0.878	0.723
Q fixed	0.862	1.09	0.818	0.959	0.89	0.964	0.912	0.95	0.791
R fixed	0.853	0.939	0.729	0.968	1.03	1.02	0.913	0.962	0.869
V fixed	0.972	0.791	0.771	0.828	0.783	0.864	0.831	0.827	0.825
W fixed	1.61	1.03	1.01	1.04	1.22	1.55	1.35	1.66	1.21
Y fixed	1.34	0.962	1.52	1.07	1.21	1.03	1.65	1.53	1.25
pThr fixed	0.849	1.01	1.27	1.36	0.587	0.794	0.865	0.973	1.09
pTyr fixed	0.895	1.19	0.99	1	0.7	0.943	1.31	1.83	1.07

LATS1, construct: aa589-end (from UniProt O95835)
relative phosphorylation
Conditions	at +1	at +2	at +3	at +4	at -1	at -2	at -3	at -4	at -5
A fixed	0.659	0.785	0.976	0.856	0.615	0.872	0.639	1.08	0.8
D fixed	1.01	1.11	1.46	1.45	1.88	1.91	1.24	0.946	1.01
E fixed	1.3	2.1	1.28	1.52	0.865	1.3	0.564	0.822	0.706
F fixed	0.776	0.66	0.867	0.785	0.27	0.756	0.375	0.839	0.611
G fixed	0.751	0.85	1.17	1.34	1.3	0.893	0.853	1.04	1.09
H fixed	0.946	1.2	1.03	1.22	0.891	0.974	1.2	1.6	4.19
I fixed	0.957	1.34	0.784	0.743	0.21	0.298	0.257	0.481	0.476
K fixed	1.23	0.623	1.27	0.844	2.38	1.36	1.78	1.15	0.971
L fixed	1.46	1.29	0.961	0.707	0.438	0.373	0.312	0.62	0.52
M fixed	1.8	0.941	0.791	0.994	0.667	0.692	0.427	0.8	0.74
N fixed	0.907	1.12	0.955	1.26	1.2	1.08	0.765	0.939	0.868
P fixed	0.648	0.816	1.08	0.982	3.01	0.99	2.34	1.42	0.834
Q fixed	0.91	0.846	0.941	0.924	1.02	1.41	0.705	1.02	0.718
R fixed	0.683	1.21	0.645	0.755	0.915	1.79	3.7	1.19	1.15
V fixed	0.797	0.771	0.902	0.647	0.294	0.359	0.326	0.61	0.613
W fixed	1.26	0.585	1.06	0.907	0.436	0.969	0.708	1.5	0.842
Y fixed	0.9	0.754	0.827	1.07	0.604	0.978	0.824	0.931	0.863
pThr fixed	1.2	1.09	1.2	2.38	0.769	0.586	0.536	0.599	0.598
pTyr fixed	0.854	0.716	0.789	1.15	0.411	0.431	0.542	0.578	0.613

PRKCQ, construct: Full length (from UniProt Q04759)
relative phosphorylation
Conditions	at +1	at +2	at +3	at +4	at -1	at -2	at -3	at -4	at -5
A fixed	0.568	0.491	0.841	0.988	1.06	0.884	0.837	1.17	1.13
D fixed	0.139	0.187	0.373	0.434	0.378	0.333	0.326	0.642	0.786
E fixed	0.184	0.14	0.362	0.385	0.315	0.305	0.344	0.725	0.58
F fixed	1.93	0.626	0.883	0.614	0.853	0.689	0.694	0.748	0.981
G fixed	0.411	0.376	0.887	1.1	1.6	1.22	0.871	1.41	1.21
H fixed	0.815	1.45	1.33	1.6	1.08	1.15	1.33	1.2	1.14
I fixed	1.46	0.612	0.762	0.629	0.309	0.348	0.329	0.522	0.769
K fixed	1.63	3.19	1.91	2.4	1.89	1.89	1.72	1.51	1.58
L fixed	1.16	0.553	0.969	0.652	0.64	0.472	0.462	0.553	0.857
M fixed	1.68	0.819	0.85	0.721	0.861	0.612	0.583	0.784	0.682
N fixed	0.441	0.873	0.782	1.01	1.21	1.11	0.915	1.05	0.899
P fixed	0.185	0.274	0.557	1.23	0.941	0.462	0.706	1.1	1.02
Q fixed	0.952	0.748	0.929	0.944	1.09	1.22	0.982	0.996	0.862
R fixed	1.83	3.66	2.14	1.88	2.29	4.01	4.83	1.95	1.88
V fixed	1.35	0.598	0.776	0.688	0.539	0.47	0.435	0.669	0.775
W fixed	1.07	0.859	1.31	0.884	0.728	1.01	0.814	1.22	1.12
Y fixed	1.21	1.54	1.33	0.827	1.2	0.822	0.816	0.757	0.734
pThr fixed	0.427	0.275	0.349	0.36	0.266	0.481	0.571	0.689	0.572
pTyr fixed	0.351	0.255	0.379	0.263	0.543	0.497	0.566	0.574	0.645
